Measurements reported in patent US20230212305A1, “ANTI-ABCG2 ANTIBODIES AND USES THEREOF” (Kenjockety Biotechnology, Inc., priority 2020, published 2023).

What was measured:
cynomolgus ABCG2 = assay: Flow cytometry binding to 293T cells overexpressing cynomolgus ABCG2; set-up: key to Cynomolgus ABCG2 binding: binding=“+”; non-significant binding=“−”; conditions: for binding to 293T cells overexpressing cynomolgus ABCG2: in words, FIGS. 7-11, 21
Procedure: (§1) Cell Binding Assays. Antibody binding to cells was evaluated by flow cytometry. 293T cells stably transfected to express human or cynomolgus ABCG2 (293T_ABCG2_OX) were washed once in flow cytometry buffer (PBS+2% FBS+0.02% sodium azide), resuspended at 2×10^6 cells/mL in flow cytometry buffer, and dispensed into 96-well microtiter plates at 0.1 mL/well. Recombinant antibodies were added to cells at 5 ug/mL for initial binding confirmation, or serially diluted from 100 ug/mL in flow cytometry buffer. After incubating cells on ice for 30 min, cells were washed twice with flow cytometry buffer. Bound antibody was detected with PE-labeled F(ab′)2 fragment goat anti-human IgG (Jackson ImmunoResearch) and evaluated on an Attune NxT flow cytometer. EC50 is calculated to be the concentration of antibody that gives half maximal response.

ABCG2 [1] = biological target: T1, ABCG2 (Homo sapiens, UniProt Q9UNQ0); assay: Flow cytometry binding to 293T cells overexpressing human ABCG2 (293T_ABCG2_OX); set-up: key to Binding by FACS: binding=“+”; non-significant binding=“−”; conditions: for binding to 293T cells overexpressing human ABCG2: in words, FIGS. 7-11, 21; for Binding by FACS: 293T_ABCG2_OX cells
T1 construct: expressed in transfected cells
T1 sequence (Q9UNQ0 1-655): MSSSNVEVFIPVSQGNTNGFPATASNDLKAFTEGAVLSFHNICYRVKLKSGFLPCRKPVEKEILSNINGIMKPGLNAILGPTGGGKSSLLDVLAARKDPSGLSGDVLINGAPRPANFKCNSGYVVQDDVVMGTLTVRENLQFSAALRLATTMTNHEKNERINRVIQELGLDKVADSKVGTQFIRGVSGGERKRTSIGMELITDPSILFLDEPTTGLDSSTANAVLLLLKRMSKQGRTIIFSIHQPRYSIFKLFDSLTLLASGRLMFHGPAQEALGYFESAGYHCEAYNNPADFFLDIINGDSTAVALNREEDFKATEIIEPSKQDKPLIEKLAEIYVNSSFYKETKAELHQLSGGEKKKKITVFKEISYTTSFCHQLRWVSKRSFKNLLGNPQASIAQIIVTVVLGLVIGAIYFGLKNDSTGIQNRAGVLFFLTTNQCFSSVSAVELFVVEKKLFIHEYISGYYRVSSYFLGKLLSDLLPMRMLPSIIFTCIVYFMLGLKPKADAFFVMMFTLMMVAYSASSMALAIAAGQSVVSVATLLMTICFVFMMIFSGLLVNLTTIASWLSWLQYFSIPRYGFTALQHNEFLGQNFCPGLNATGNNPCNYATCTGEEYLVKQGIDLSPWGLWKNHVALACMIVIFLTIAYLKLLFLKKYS
Procedure: as §1

ABCG2 [2] = biological target: T1, ABCG2; type: cell-based
Procedure: 293T_ABCG2_OX cells were washed several times and aliquoted into 96-well plates as 50 μl aliquots/well at a cell density of 2×10e6 cells per ml in phenol red-free DMEM. Cells were mixed with 50 μl antibodies or the small molecule inhibitors of ABCG2:-fumitremorgin C (FTC), or its tetracyclic analogue K0143, with a final concentration of 1 μM. Cells were then incubated in the presence of 2.5 μM Mitoxantrone 1 h at 37° C. The cells were subsequently washed twice and finally resuspended in […] PBS. Mitoxantrone fluorescence was measured using excitation at 635 nm and emission at 647 nm. Protocols was measuring efflux blockade are found in Szabo E, et al., PLoS One. 2018 Jan. 17; 13(1):e0190629; Deeken J F, et al., Mol Pharmacol. 2009 November; 76(5):946-56).

cynomolgus ABCG2, sequence (as listed by the source): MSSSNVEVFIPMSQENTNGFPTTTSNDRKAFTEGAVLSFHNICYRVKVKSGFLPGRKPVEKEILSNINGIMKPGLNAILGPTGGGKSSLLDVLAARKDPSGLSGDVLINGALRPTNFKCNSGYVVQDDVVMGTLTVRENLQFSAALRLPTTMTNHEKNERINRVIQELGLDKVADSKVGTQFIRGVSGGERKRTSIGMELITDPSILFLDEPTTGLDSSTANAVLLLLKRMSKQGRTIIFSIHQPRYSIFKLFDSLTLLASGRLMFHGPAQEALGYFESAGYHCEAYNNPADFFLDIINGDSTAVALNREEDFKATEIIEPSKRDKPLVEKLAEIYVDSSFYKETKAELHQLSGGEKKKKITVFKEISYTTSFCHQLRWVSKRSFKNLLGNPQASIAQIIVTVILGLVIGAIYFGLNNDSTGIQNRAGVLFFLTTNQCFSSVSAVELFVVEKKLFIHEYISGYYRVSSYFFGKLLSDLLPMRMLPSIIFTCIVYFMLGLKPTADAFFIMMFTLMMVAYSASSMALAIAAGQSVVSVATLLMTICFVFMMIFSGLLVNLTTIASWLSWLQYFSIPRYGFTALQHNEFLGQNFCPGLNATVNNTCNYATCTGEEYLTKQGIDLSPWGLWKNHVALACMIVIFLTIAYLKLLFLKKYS

Molecule	binding to 293T cells overexpressing cynomolgus ABCG2 (cynomolgus ABCG2)	binding to 293T cells overexpressing human ABCG2 (ABCG2 [1])	Block Efflux (ABCG2 [2])	Cynomolgus ABCG2 binding (cynomolgus ABCG2)	Binding by FACS (ABCG2 [1])	efflux inhibition activities and binding to human and cynomolgus ABCG2 of humanized G2.636 antibodies (ABCG2 [2])
G2.748: anti-ABCG2 monoclonal antibody (antibody, V domains shown) VH: QVSLKESGPGMLQPSKTLSLTCSFSGFSLSTSGMVVNWIRQPSGKSLEWLAAIDWDGDKYYNPSLKHRLTVSKDTSNTQVVLKITSVDTADTATYYCARSIAPYRGWFGYWGQGTLVTVSS VL: EIVLIQSPSSLPASLGERVTIICRASQDIGNNLNWYQQKPDGTIKPLIYFTSNFQSGVPSSFSGSRSGTDFSLTISSLEAEDFAMYYCQQDASLPWTFGGGTKLEIK	good binding affinity	good binding affinity				
G2.302 Humanized: humanized version of anti-ABCG2 antibody G2.302 (antibody, V domains shown) VH: EIQLVQSGAEVKKPGASVKVSCKASGYTFTDYYINWVRQAPGQRLEWIGWIYPGNVNVKYNEKFKGRATLTVDTSASTGYMELSSLRSEDTAVYFCARSIGLRYFDNWGQGTLVTVSS VL: EKVLTQSPATLSLSPGERATLSCRASSSVHYMYWHQQKPGQSPRLWIYYTSNLAPGVPARFSGSGSGNDYTLTISSLEPEDFAVYYCQQFTTSTWTFGGGTKLEIK			−	+	+	
G2.757: anti-ABCG2 monoclonal antibody (antibody, V domains shown) VH: QVTLKESGPGILRPSHTLSLTCSFSGFSLTTYGICVSWIRQPSGKGLEWLANICWEDSKAYNPSLKNRLTISKDTSNNQVFLRIPSVDTADSAIYYCARVFNNYPFPYWGQGTLVTVSS VL: TQSPPSLSASLGDKVTITCQASQNINKYVAWYQQKPGKAPRLLIRYTSTLESGTPSRFSGSGSWRDYSFSISNVESEDIADYYCLQYVNLWTFGGGTKLELK	good binding affinity	good binding affinity				
G2.346 rat: anti-ABCG2 antibody raised in rat (antibody, V domains shown) VH: SVQWKESGPGLVQPSQTLSLTCTVSGFSLTSNGVSWVRQPPGKGLEWIAAISSGGSTYYNSGLKSRLSISRDTSKSQVFLKMNSLQTEDTAIYFCTRAGYYGYNPIWFTYWGQGTLVTVSS VL: DVVMTQTPPTLSATIGQSVSISCRSSQSLLHGSGNTYLNWLLQRPGQPPQILIYLVSRLESRVPKRFSGSGSGTDFTLKISGVEADDLGVYYCVQSTHAPFTFGSGTKLELK			−	+	+	
G2.348 rat: anti-ABCG2 antibody raised in rat (antibody, V domains shown) VH: EVQLVESGPGLMQPSQTLSLTCTVSGFSLTSNGVSWVRQPPGKGLEWIATISSGGNTNYNSALKSRLSISRDTSKSQVFLKMNSLQTEDTAIYFCTRVGYYGYNPIWFAYWGQGTLVTVSS VL: DVVMTQTPPTLSATIGHSVSISCRSSQSLFHSSGNTYLSWFLQRPGQPPQLLIYLVSRLESRVPNRFSGSGSGTDFTLKISVLEAEDLGVYYCVQTTHAPFTFGSGTKLEIK			−	+	+	
G2.760: anti-ABCG2 monoclonal antibody (antibody, V domains shown) VH: EVQLVESGGGLVQPGRSMKLSCAASGFTFSKSDMAWVRQAPTKGLKWVASIRYDGGNTYYRDSVRGRFTISRDNAKSTLYLQMDSLRSEDTATYYCSTAKAAISTPSYYVLDAWGQGASVTVSS VL: DIGMTQSPTSMSKSVGDRVTMNCKASQNVGSNVDWFQQKTGQSPKLLIYKSSNRYTGVPARFTGSGSGTDFTFTISNMQAEDLAVYYCMQSNSYPPTFGGGTKLELK	good binding affinity	good binding affinity				
G2.640: Anti-G2 antibody raised in rats; VH SEQ ID NO:415, VL SEQ ID NO:416 (antibody, listed as Rattus norvegicus, V domains shown) VH: EVKLEESGPGLVQPSQTLSLTCTVSGFSLTSDGVSWVRQPPGKGLEWIAAISSGGSTYYNSALKSRLSISRDTSKSQVFLKMNSLQTEDTAIYFCTRDTYYGYNQIPFVYWGQGTLVTVSS VL: DIVIIQSPPSLSASLGDKVTISCQASQNIHRYIAWYQQKPGKAPRLLIRYTSTLESGTPSRFSGSGSGRDYSFSISNVESEDIASYYCLQYVNLWTFGGGTKLELK	did not show significant binding	did not show significant binding				
G2.636.hu47: humanized variant of the anti-ABCG2 antibody G2.636 (antibody, V domains shown) VH: EVQLVESGGGLVQPGGSLRLSCAASGFTFSRFYMAWVRQAPGKGLEWVAHISHGGDTTYYRDSVKGRFTISRDNSKNTLYLQMNSLRAEDTAVYYCTTSAAPWNYVMDGWGQGATVTVSS VL: DIQLTQSPSSLSASVGDRVTLTCKGSQNINNFLAWYQQKPGKAPKLLIYKTNSLHTGIPSRFSGSGSGTDYTLTISSLQPEDFATYYCYQYNNGYTFGQGTKLEIK						particularly good expression and activity
G2.247 mouse: anti-ABCG2 antibody raised in mouse (antibody, V domains shown) VH: EVRLQQSGAELVKPGASVKLSCKTSGFTFSNSYISWLKQKPRQSLEWIAWIYAGTGGTNYNQKFTGKAQLTVDTSSSTAYMQLSSLTSEDSAIYYCATYGNFLYAMDNWGQGTSVTVSS VL: DIVMTQSPASLSASVGETVTITCRASGNIHNYLAWYQQKQGKSPQLLVYNTKTLADGVPSRFSGSGSGTQYSLKINSLQPEDFGSYYCQHFWSTPWTFGGGTKLEIK			−	−	+	
G2.252 mouse: anti-ABCG2 antibody raised in mouse (antibody, V domains shown) VH: EVQLQQSGAELVKPGASVKLSCKTSGFTFSNSYISWLKQKPRQSLEWIAWIYAGTGGTNYNQKFTGKAQLTVDTSSSTAYMQLSSLTSEDSAIYYCATYGNFLYAMDYWGQGTTLTVSS VL: EIVLTQSPASLSASVGETVTITCRASGNIHNYLAWYQQKQGKSPQLLVYNAKTLADGVPSRFSGSGSGTQYSLKINSLQPEDFGSYYCQHFWSTPWTFGGGTKLEIK			−	−	+	
G2.394 rat: anti-ABCG2 antibody raised in rat (antibody, V domains shown) VH: EVQLKESGPGLVQPSQTLSLTCTVSGFSLTDYTITWVRQPPGKGLEWIAATSVGGATHYNSPLKSRLSISGDTSKSQVFLKMNSLRTEDTAMYFCVRSGYYSTYMNWGRGTMVTVSS VL: DVVMTQTPPTFSATIGQSVSISCRSSQSLLHSSGNTFLSWLLQRPGQPPQLLIYLVSRLEFGVPNRFSGSGSGTDFTLKISGVEAEDLGVYYCVQSTHVMNTFGAGTKLEIK			−	+	+	
G2.257 mouse: anti-ABCG2 antibody raised in mouse (antibody, V domains shown) VH: EVQLQQSGPELVKPGASLKISCKTFGYSFTGYYMHWVKQSPEKSLEWIGKIVPSTGGTTYNQKFKAKATLTVDKSSFTAYMQLKSLTTEDSAVYYCAREKVYGYDVYYFDYWGQGTTLTVSS VL: DIQMTQTPSSLSASLGDRVTITCSTSQGVRSYLNWYQQKPDGSVKLLIYYTSSLHSGVPSRFSGSGSGTDYSLTISNLEPEDIATYYCQQYSKLPYTFGGGTKLELK			−	+	+	
